Data published in PMC6820557, “Discovery of dual-activity small-molecule ligands of Pseudomonas aeruginosa LpxA and LpxD using SPR and X-ray crystallography” (Scientific Reports, 2019).

B1: N-terminal His-tagged P. aeruginosa LpxD with a 2 amino acid deletion (enzyme, Pseudomonas aeruginosa, UniProt Q9HXY6 3-353, looked up)
chain: STLSYTLGQLAAHVGAEVRGDADLPIQGLATLQEAGPAQLSFLANPQYRKYLPESRAGAVLLTAADADGFAGTALVVANPYLAYASLSHLFDRKPKAAAGIHPTAIVAADAEVDPSASVGAYAVIESGARIGAGVSIGAHCVIGARSVIGEGGWLAPRVTLYHDVTIGARVSIQSGAVIGGEGFGFANEKGVWQKIAQIGGVTIGDDVEIGANTTIDRGALSDTLIGNGVKLDNQIMIAHNVQIGDHTAMAACVGISGSAKIGRHCMLAGGVGLVGHIEICDNVFVTGMTMVTRSITEPGSYSSGTAMQPAAEWKKSAARIRQLDDMARRLQQLEKRLAAVTSSGDASSDA
notes: LpxD, Pseudomonas aeruginosa; they lay immediately after the N-terminal 18-AA hexahistidine tag and protease site (thrombin site replaced by a TEV site); Parent construct is that of the published structure (PDB 3PMO), with the thrombin site replaced by a TEV site; The mutagenesis primer reads ENLYFQG followed by STLSYT; Two of the deposited entries 6UEC, 6UED, 6UEE, 6UEG hold this construct; also …
B2: biotinylated avidity (Avi) tagged LpxD (enzyme, Pseudomonas aeruginosa, UniProt Q9HXY6 1-353, looked up)
chain: MMSTLSYTLGQLAAHVGAEVRGDADLPIQGLATLQEAGPAQLSFLANPQYRKYLPESRAGAVLLTAADADGFAGTALVVANPYLAYASLSHLFDRKPKAAAGIHPTAIVAADAEVDPSASVGAYAVIESGARIGAGVSIGAHCVIGARSVIGEGGWLAPRVTLYHDVTIGARVSIQSGAVIGGEGFGFANEKGVWQKIAQIGGVTIGDDVEIGANTTIDRGALSDTLIGNGVKLDNQIMIAHNVQIGDHTAMAACVGISGSAKIGRHCMLAGGVGLVGHIEICDNVFVTGMTMVTRSITEPGSYSSGTAMQPAAEWKKSAARIRQLDDMARRLQQLEKRLAAVTSSGDASSDA
modifications: biotin (on the Avi tag)
notes: LpxD, Pseudomonas aeruginosa; gene inserted into the BamHI and HindIII sites of the pAvibir plasmid; printed mass of Avi-LpxD 39.8 kDa; also called Avi-LpxD; source: E. coli Rosetta DE3 pLysS, purified (HisTrap, Superdex 75)
B3: P. aeruginosa LpxA (enzyme, Pseudomonas aeruginosa)
chain: MSLIDPRAIIDPSARLAADVQVGPWSIVGAEVEIGEGTVIGPHVVLKGPTKIGKHNRIYQFSSVGEDTPDLKYKGEPTRLVIGDHNVIREGVTIHRGTVQDRAETTIGDHNLIMAYAHIGHDSVIGNHCILVNNTALAGHVHVDDWAILSGYTLVHQYCRIGAHSFSGMGSAIGKDVPAYVTVFGNPAEARSMNFEGMRRRGFSSEAIHALRRAYKVVYRQGHTVEEALAELAESAAQFPEVAVFRDSIQSATRGITR
notes: LpxA, Pseudomonas aeruginosa; Two of the deposited entries 6UEC, 6UED, 6UEE, 6UEG hold this protein
B4: biotinylated avidity (Avi) tagged LpxA (enzyme, Pseudomonas aeruginosa, UniProt Q9X6P4 1-258, looked up)
chain: MSLIDPRAIIDPSARLAADVQVGPWSIVGAEVEIGEGTVIGPHVVLKGPTKIGKHNRIYQFSSVGEDTPDLKYKGEPTRLVIGDHNVIREGVTIHRGTVQDRAETTIGDHNLIMAYAHIGHDSVIGNHCILVNNTALAGHVHVDDWAILSGYTLVHQYCRIGAHSFSGMGSAIGKDVPAYVTVFGNPAEARSMNFEGMRRRGFSSEAIHALRRAYKVVYRQGHTVEEALAELAESAAQFPEVAVFRDSIQSATRGITR
modifications: biotin (on the Avi tag)
notes: LpxA, Pseudomonas aeruginosa; gene inserted into the BamHI and HindIII sites of the pAvibir plasmid; printed mass of Avi-LpxA 31.6 kDa; also called Avi-LpxA; source: E. coli Rosetta DE3 pLysS, purified (HisTrap, Superdex 75)

Columns and labels:
[1] = target: the molecule itself; experiment: SEC; HiLoad 16/60 Superdex 75; 20 mM Tris-HCl pH 8.6, 250 mM NaCl
[2] = target: the molecule itself; experiment: SEC; HiLoad 16/60 Superdex 75; 20 mM Tris pH 8.6, 250 mM NaCl, 1 mM EDTA
[3] = target: the molecule itself; experiment: crystal structure; LpxA soaked with compound 1 (2.10 Å) or compound 2 (2.00 Å); P212121, six monomers per asymmetric unit; 12% PEG 1000, 0.2 M calcium acetate, 0.1 M imidazole pH 7.0

Protein	stoichiometry N [2]	further results
B1		stoichiometry N [1]: 3
B2	3	
B3		binding result [3]: binds
B4	3	
